B1: DVD3111 (bispecific antibody, IgG1)
VH: EVQLVQSGAEVKKPGASVKVSCKASGYTFTTYGVSWVRQAPGQGLEWMGEIYPGNYNTYYNEKFRGRVTMTTDTSTSTAYMELRSLRSDDTAVYYCARWRTSYFSDYGYFDYWGQGTTVTVSSASTKGPEVQLVQSGAEVKKPGASVKVSCKASGYTFANYGIIWVRQAPGQGLEWMGWINTYTGKPTYAQKFQGRVTMTTDTSTSTAYMELSSLRSEDTAVYYCARKLFTTMDVTDNAMDYWGQGTTVTVSS
VL: DVVMTQSPLSLPVTLGQPASISCRSSQSLVHSHGNTYLHWYQQRPGQSPRLLIYTVSNRFSGVPDRFSGSGSGTDFTLKISRVEAEDVGVYYCSQSTHVPYTFGGGTKVEIKRTVAAPSVFIFPPDIQMTQSPSSLSASVGDRVTITCRASQDISQYLNWYQQKPGKAPKLLIYYTSRLQSGVPSRFSGSGSGTDFTLTISSLQPEDFATYFCQQGNTWPPTFGQGTKLEIKR
B2: DVD3112 (bispecific antibody, IgG1)
VH: EVQLVQSGAEVKKPGASVKVSCKASGYTFTTYGVSWVRQAPGQGLEWMGEIYPGNYNTYYNEKFRGRVTMTTDTSTSTAYMELRSLRSDDTAVYYCARWRTSYFSDYGYFDYWGQGTTVTVSSASTKGPSVFPLAPEVQLVQSGAEVKKPGASVKVSCKASGYTFANYGIIWVRQAPGQGLEWMGWINTYTGKPTYAQKFQGRVTMTTDTSTSTAYMELSSLRSEDTAVYYCARKLFTTMDVTDNAMDYWGQGTTVTVSS
VL: DVVMTQSPLSLPVTLGQPASISCRSSQSLVHSHGNTYLHWYQQRPGQSPRLLIYTVSNRFSGVPDRFSGSGSGTDFTLKISRVEAEDVGVYYCSQSTHVPYTFGGGTKVEIKRTVAAPDIQMTQSPSSLSASVGDRVTITCRASQDISQYLNWYQQKPGKAPKLLIYYTSRLQSGVPSRFSGSGSGTDFTLTISSLQPEDFATYFCQQGNTWPPTFGQGTKLEIKR
B3: DVD3117 (bispecific antibody, IgG1)
VH: EVQLVQSGAEVKKPGASVKVSCKASGYTFNNYGIIWVRQAPGQGLEWMGWINTYTGKPTYAQKFQGRVTMTTDTSTSTAYMELSSLRSEDTAVYYCARKLFNTVAVTDNAMDYWGQGTTVTVSSASTKGPSVFPLAPEVQLVESGGGLVQPGGSLRLSCAASGFTFSNYGVTWVRQAPGKGLEWVSMIWADGSTHYASSVKGRFTISRDNSKNTLYLQMNSLRAEDTAVYYCAREWQHGPVAYWGQGTLVTVSS
VL: DIQMTQSPSSLSASVGDRVTITCRASQDIENYLNWYQQKPGKAPKLLIYYTSRLQSGVPSRFSGSGSGTDFTLTISSLQPEDFATYFCQQGNTQPPTFGQGTKLEIKRTVAAPDIQMTQSPSSLSASVGDRVTITCRASQLVSSAVAWYQQKPGKAPKLLIYWASARHTGVPSRFSGSGSGTDFTLTISSLQPEDFATYYCQQHYKTPFTFGQGTKLEIKR
B4: DVD3118 (bispecific antibody, IgG1)
VH: EVQLVQSGAEVKKPGASVKVSCKASGYTFTTYGVSWVRQAPGQGLEWMGEIYPGNYNTYYNEKFRGRVTMTTDTSTSTAYMELRSLRSDDTAVYYCARWRTSYFSDYGYFDYWGQGTTVTVSSGGGGSGGGGSEVQLVQSGAEVKKPGASVKVSCKASGYTFNNYGIIWVRQAPGQGLEWMGWINTYTGKPTYAQKFQGRVTMTTDTSTSTAYMELSSLRSEDTAVYYCARKLFNTVAVTDNAMDYWGQGTTVTVSS
VL: DVVMTQSPLSLPVTLGQPASISCRSSQSLVHSHGNTYLHWYQQRPGQSPRLLIYTVSNRFSGVPDRFSGSGSGTDFTLKISRVEAEDVGVYYCSQSTHVPYTFGGGTKVEIKRGGSGGGGSGDIQMTQSPSSLSASVGDRVTITCRASQDIENYLNWYQQKPGKAPKLLIYYTSRLQSGVPSRFSGSGSGTDFTLTISSLQPEDFATYFCQQGNTQPPTFGQGTKLEIKR
B5: DVD3119 (bispecific antibody, IgG1)
VH: EVQLVQSGAEVKKPGASVKVSCKASGYTFTTYGVSWVRQAPGQGLEWMGEIYPGNYNTYYNEKFRGRVTMTTDTSTSTAYMELRSLRSDDTAVYYCARWRTSYFSDYGYFDYWGQGTTVTVSSASTKGPEVQLVQSGAEVKKPGASVKVSCKASGYTFNNYGIIWVRQAPGQGLEWMGWINTYTGKPTYAQKFQGRVTMTTDTSTSTAYMELSSLRSEDTAVYYCARKLFNTVAVTDNAMDYWGQGTTVTVSS
VL: DVVMTQSPLSLPVTLGQPASISCRSSQSLVHSHGNTYLHWYQQRPGQSPRLLIYTVSNRFSGVPDRFSGSGSGTDFTLKISRVEAEDVGVYYCSQSTHVPYTFGGGTKVEIKRTVAAPDIQMTQSPSSLSASVGDRVTITCRASQDIENYLNWYQQKPGKAPKLLIYYTSRLQSGVPSRFSGSGSGTDFTLTISSLQPEDFATYFCQQGNTQPPTFGQGTKLEIKR
B6: DVD3121 (bispecific antibody, IgG1)
VH: EVQLVQSGAEVKKPGASVKVSCKASGYTFTTYGVSWVRQAPGQGLEWMGEIYPGNYNTYYNEKFRGRVTMTTDTSTSTAYMELRSLRSDDTAVYYCARWRTSYFSDYGYFDYWGQGTTVTVSSASTKGPEVQLVQSGAEVKKPGASVKVSCKASGYTFNNYGIIWVRQAPGQGLEWMGWINTYTGKPTYAQKFQGRVTMTTDTSTSTAYMELSSLRSEDTAVYYCARKLFNTVAVTDNAMDYWGQGTTVTVSS
VL: DVVMTQSPLSLPVTLGQPASISCRSSQSLVHSHGNTYLHWYQQRPGQSPRLLIYTVSNRFSGVPDRFSGSGSGTDFTLKISRVEAEDVGVYYCSQSTHVPYTFGGGTKVEIKRTVAAPSVFIFPPDIQMTQSPSSLSASVGDRVTITCRASQDIENYLNWYQQKPGKAPKLLIYYTSRLQSGVPSRFSGSGSGTDFTLTISSLQPEDFATYFCQQGNTQPPTFGQGTKLEIKR
B7: DVD3122 (bispecific antibody, IgG1)
VH: EVQLVQSGAEVKKPGASVKVSCKASGYTFTTYGVSWVRQAPGQGLEWMGEIYPGNYNTYYNEKFRGRVTMTTDTSTSTAYMELRSLRSDDTAVYYCARWRTSYFSDYGYFDYWGQGTTVTVSSASTKGPSVFPLAPEVQLVQSGAEVKKPGASVKVSCKASGYTFNNYGIIWVRQAPGQGLEWMGWINTYTGKPTYAQKFQGRVTMTTDTSTSTAYMELSSLRSEDTAVYYCARKLFNTVAVTDNAMDYWGQGTTVTVSS
VL: DVVMTQSPLSLPVTLGQPASISCRSSQSLVHSHGNTYLHWYQQRPGQSPRLLIYTVSNRFSGVPDRFSGSGSGTDFTLKISRVEAEDVGVYYCSQSTHVPYTFGGGTKVEIKRTVAAPDIQMTQSPSSLSASVGDRVTITCRASQDIENYLNWYQQKPGKAPKLLIYYTSRLQSGVPSRFSGSGSGTDFTLTISSLQPEDFATYFCQQGNTQPPTFGQGTKLEIKR
B8: DVD3167 (bispecific antibody, IgG1)
VH: EVQLVQSGAEVKKPGASVKVSCKASGYTFANYGIIWVRQAPGQGLEWMGWINTYTGKPTYAQKFQGRVTMTTDTSTSTAYMELSSLRSEDTAVYYCARKLFTTMDVTDNAMDYWGQGTTVTVSSASTKGPSVFPLAPEVQLVQSGAEVKKPGASVKVSCKASGYTFTSYWMHWVRQAPGQGLEWIGNINPKGGSNIYNEKFQGRVTMTRDTSISTAYMELSRLRSDDTAVYYCARLDYFGDSFDLWGQGTTVTVSS
VL: DIQMTQSPSSLSASVGDRVTITCRASQDISQYLNWYQQKPGKAPKLLIYYTSRLQSGVPSRFSGSGSGTDFTLTISSLQPEDFATYFCQQGNTWPPTFGQGTKLEIKRTVAAPDIQMTQSPSSLSASVGDRVTITCRASQGIRNYLNWYQQKPGKAPKLLIYYASNLEVGVPSRFSGSGSGTDYTLTISSLQPEDFATYYCQQDNRFPYTFGGGTKVEIKR
B9: DVD3177 (bispecific antibody, IgG1)
VH: EVQLVQSGAEVKKPGASVKVSCKASGYTFNNYGIIWVRQAPGQGLEWMGWINTYTGKPTYAQKFQGRVTMTTDTSTSTAYMELSSLRSEDTAVYYCARKLFNTVAVTDNAMDYWGQGTTVTVSSASTKGPSVFPLAPEVQLVQSGAEVKKPGASVKVSCKASGYTFTSYWMHWVRQAPGQGLEWIGNINPKGGSNIYNEKFQGRVTMTRDTSISTAYMELSRLRSDDTAVYYCARLDYFGDSFDLWGQGTTVTVSS
VL: DIQMTQSPSSLSASVGDRVTITCRASQDIENYLNWYQQKPGKAPKLLIYYTSRLQSGVPSRFSGSGSGTDFTLTISSLQPEDFATYFCQQGNTQPPTFGQGTKLEIKRTVAAPDIQMTQSPSSLSASVGDRVTITCRASQGIRNYLNWYQQKPGKAPKLLIYYASNLEVGVPSRFSGSGSGTDYTLTISSLQPEDFATYYCQQDNRFPYTFGGGTKVEIKR
B10: DVD2693 (bispecific antibody, IgG1)
VH: EVQLVESGGGLVQPGGSLRLSCAASGFTFSNYGVTWVRQAPGKGLEWVSMIWADGSTHYASSVKGRFTISRDNSKNTLYLQMNSLRAEDTAVYYCAREWQHGPVAYWGQGTLVTVSSGGGGSGGGGSEVQLVQSGAEVKKPGASVKVSCKASGYTFTKYWLGWVRQAPGQGLEWMGDIYPGYDYTHYNEKFKDRVTLTTDTSTSTAYMELRSLRSDDTAVYYCARSDGSSTYWGQGTLVTVSS
VL: DIQMTQSPSSLSASVGDRVTITCRASQLVSSAVAWYQQKPGKAPKLLIYWASARHTGVPSRFSGSGSGTDFTLTISSLQPEDFATYYCQQHYKTPFTFGQGTKLEIKRGGSGGGGSGDVLMTQTPLSLPVTPGEPASISCTSSQNIVHSNGNTYLEWYLQKPGQSPQLLIYKVSNRFSGVPDRFSGSGSGTDFTLKISRVEAEDVGVYYCFQVSHVPYTFGGGTKVEIKR
B11: DVD2694 (bispecific antibody, IgG1)
VH: EVQLVESGGGLVQPGGSLRLSCAASGFTFSNYGVTWVRQAPGKGLEWVSMIWADGSTHYASSVKGRFTISRDNSKNTLYLQMNSLRAEDTAVYYCAREWQHGPVAYWGQGTLVTVSSASTKGPEVQLVQSGAEVKKPGASVKVSCKASGYTFTKYWLGWVRQAPGQGLEWMGDIYPGYDYTHYNEKFKDRVTLTTDTSTSTAYMELRSLRSDDTAVYYCARSDGSSTYWGQGTLVTVSS
VL: DIQMTQSPSSLSASVGDRVTITCRASQLVSSAVAWYQQKPGKAPKLLIYWASARHTGVPSRFSGSGSGTDFTLTISSLQPEDFATYYCQQHYKTPFTFGQGTKLEIKRTVAAPDVLMTQTPLSLPVTPGEPASISCTSSQNIVHSNGNTYLEWYLQKPGQSPQLLIYKVSNRFSGVPDRFSGSGSGTDFTLKISRVEAEDVGVYYCFQVSHVPYTFGGGTKVEIKR
B12: DVD2698 (bispecific antibody, IgG1)
VH: EVQLVQSGAEVKKPGASVKVSCKASGYTFTKYWLGWVRQAPGQGLEWMGDIYPGYDYTHYNEKFKDRVTLTTDTSTSTAYMELRSLRSDDTAVYYCARSDGSSTYWGQGTLVTVSSGGGGSGGGGSEVQLVESGGGLVQPGGSLRLSCAASGFTFSNYGVTWVRQAPGKGLEWVSMIWADGSTHYASSVKGRFTISRDNSKNTLYLQMNSLRAEDTAVYYCAREWQHGPVAYWGQGTLVTVSS
VL: DVLMTQTPLSLPVTPGEPASISCTSSQNIVHSNGNTYLEWYLQKPGQSPQLLIYKVSNRFSGVPDRFSGSGSGTDFTLKISRVEAEDVGVYYCFQVSHVPYTFGGGTKVEIKRGGSGGGGSGDIQMTQSPSSLSASVGDRVTITCRASQLVSSAVAWYQQKPGKAPKLLIYWASARHTGVPSRFSGSGSGTDFTLTISSLQPEDFATYYCQQHYKTPFTFGQGTKLEIKR

Molecular target: Recombinant Human TNF-α/TNFSF1A (human, UniProt P01375 77-233)
Assay: cell-based or functional assay

Recombinant Human TNF-α/TNFSF1A, sequence (P01375 77-233 limits assumed): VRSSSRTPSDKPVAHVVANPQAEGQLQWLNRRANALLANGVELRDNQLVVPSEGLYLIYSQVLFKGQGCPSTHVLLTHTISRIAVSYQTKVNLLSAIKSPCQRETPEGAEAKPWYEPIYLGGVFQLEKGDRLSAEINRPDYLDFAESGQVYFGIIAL

| Binder | C-Terminal VD huTNFα Neutralization Assay IC50 | N-Terminal VD huTNFα Neutralization Assay IC50 |
| --- | --- | --- |
| B1 | 0.146 nM | – |
| B2 | 0.387 nM | – |
| B3 | – | 1.96 nM |
| B4 | 0.065 nM | – |
| B5 | 0.163 nM | – |
| B6 | 0.036 nM | – |
| B7 | 0.018 nM | – |
| B8 | – | 0.018 nM |
| B9 | – | 0.022 nM |
| B10 | – | 0.001 nM |
| B11 | – | 0.001 nM |
| B12 | 0.085 nM | – |
